Holding throughout (test): SPR
On the technique in general: SPR reads the build-up and loss of mass on a sensor chip optically.

One assay addresses T1, GST-X11β (domain).
T1 chain: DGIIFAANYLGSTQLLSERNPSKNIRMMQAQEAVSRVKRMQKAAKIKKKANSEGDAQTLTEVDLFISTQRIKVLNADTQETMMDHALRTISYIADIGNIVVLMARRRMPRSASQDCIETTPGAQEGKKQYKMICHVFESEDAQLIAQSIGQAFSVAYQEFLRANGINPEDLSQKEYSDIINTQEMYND

Assay [1] deals with GST-Grb2 domain (GST-SH2 recombinant protein).
The target in assay [2] is T2, GST-NUMB-p71 (region with the PTB domain).
T2 chain: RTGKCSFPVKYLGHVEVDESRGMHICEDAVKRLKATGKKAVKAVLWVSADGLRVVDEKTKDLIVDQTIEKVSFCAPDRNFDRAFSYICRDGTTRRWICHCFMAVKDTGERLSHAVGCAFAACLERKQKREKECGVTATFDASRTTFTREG

Where no end group is shown, it is not given here. [ ]: non-standard residue; d: D form. pY = N[C@@H](Cc1ccc(OP(=O)(O)O)cc1)C(=O)O; pT = C[C@@H](OP(=O)(O)O)[C@H](N)C(=O)O

GST-Grb2 domain (GST-SH2 recombinant protein), sequence (chain, as listed by the source): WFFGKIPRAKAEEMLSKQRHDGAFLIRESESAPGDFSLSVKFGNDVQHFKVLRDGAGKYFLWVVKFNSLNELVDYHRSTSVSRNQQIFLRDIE

As a reminder, the Kd is the equilibrium constant for the complex coming apart. As to VMLKKKQYTSIHHGVVEVDAAV[pT]PEERHLSKMQQNGYENPTYKFFEQMQN (also: strep-tag, position not given here) [strep-tag AID peptide phosphorylated on Thr-668], binding in the assay with GST-X11β (domain) was put at a Kd of 33.5 nM. With VMLKKKQYTSIHHGVVEVDAAVTPEERHLSKMQQNG[pY]ENPTYKFFEQMQN (also: strep-tag, place not given here) [strep-tag AID peptide phosphorylated on Tyr-682], in assay [1], the dissociation constant Kd turned out to be 2.57 nM. Turning to VMLKKKQYTSIHHGVVEVDAAVTPEERHLSKMQQNGYENPTYKFFEQMQN (also: strep-tag, position not given here) [strep-tag AID peptide (APP intracellular domain, last 50 amino acids of APP), non-phosphorylated], the Kd in assay [2] was found to be 105 nM; in the assay with GST-X11β (domain), 8.48 nM. As for VMLKKKQYTSIHHGVVEVDAAV[pT]PEERHLSKMQQNG[pY]ENPTYKFFEQMQN (also: strep-tag, place not given here) [strep-tag AID peptide phosphorylated on Thr-668 and Tyr-682], the dissociation constant (Kd) in assay [1] came out at 0.413 nM; in the assay with GST-X11β (domain), 13.1 nM.

The record behind these values is paper PMC2723102 (2009).
